According to the nanobody polyreactivity screen of Harvey et al. (2022):

assay: yeast display, Sf9 membrane polyspecificity reagent, FACS + sequencing; frameworks hold sequencing errors
Outline: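 After 36–48 hours of galactose induction, yeast (Saccharomyces cerevisiae BJ5465) displaying a synthetic nanobody library were stained at 4 °C for 1 hour with 10% biotinylated, detergent-solubilized Sf9 membrane reagent. Streptavidin microbeads enriched the stained cells before FACS sorting into low and high (top ~1%) gates on anti-HA and streptavidin fluorescence. Each clone's polyreactivity label reflects its gate of origin.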

**Q.** Which “polyreactivity (PSR sort gate)” value does the source give for “QVQLVESGGGLVQAGGSLRLSCAASGRTLGHNAMGWYRQAPGKERELVAAITSRGGTTYADSVKGRFTISRDNAKNTVYLQMNSLKPEDTAVYYCAARGYAYSRYYYWGQGTQVTVSS” here?
**A.** high polyreactivity

**Q.** With “QVQLVESGGGLVQAGGSLRLSCAASGRTLGKYVMGWYRQAPGKERELVAAISVRGGTTYYADSVKGRFTISRDNAKYTVYLQMNSLKPEDTAVYYGNKAYYVWYGWGQGTQVTVSS” as the sequence, how does the “polyreactivity (PSR sort gate)” value read?
**A.** high polyreactivity

**Q.** For “QVQLVESGGGLVQAGGSLRLSCAASGRTLGSNTMGWYRQAPGKERELVASISLSGGSTSYADSVKGRFTISRDNAKNTVYLQMNSLKPEDTAVYYCNAKYHRRLQWGTRYYYWGQGTQVTVSS”, which “polyreactivity (PSR sort gate)” value is on record?
**A.** high polyreactivity

**Q.** Which “polyreactivity (PSR sort gate)” value does the source give for “QVQLVESGGGLVQAGGSLRLSCAASGRTLGTNAMGWYRQAPGKERELVASISKRGGSTYYADSVKGRFTISRDNAKNTVYLQMNSLKPEDTAVYYCAALFLSHIYYYWGQGTQVTVSS” here?
**A.** high polyreactivity

**Q.** Which “polyreactivity (PSR sort gate)” value does the source give for “QVQLVESGGGLVQAGGSLRLSCAASGRTLGVYTMGWYRQAPGKERELVATISWDGGITYYADSVKGRFTISRDNAKNTVYLQMNSLKPEDTAVYYCAAVDHSYGWMDYWGQGTQVTVSS” here?
**A.** low polyreactivity

**Q.** Which “polyreactivity (PSR sort gate)” value does the source give for “QVQLVESGGGLVQAGGSLRLSCAASGRTLHDYTMGWYRQEPGKERELVAGITSGGRTNYADSVKGRFTISRYNAKNTVYLQMNSLKPEDTAVYYCAAAWTWWRLYADDYWGQGTQVTVSS” here?
**A.** high polyreactivity

**Q.** With “QVQLVESGGGLVQAGGSLRLSCAASGRTLISYAMGWYRQAPGKERELVAAISWGGSSTYYADSVKGRFTISGDNAKNTVYLQMNSLKPEDTAVYYCAAVSYRGRGLSRYVAYGYKYDYWGQGTQVTVSS” as the sequence, how does the “polyreactivity (PSR sort gate)” value read?
**A.** high polyreactivity

**Q.** With “QVQLVESGGGLVQAGGSLRLSCAASGRTLKKNSMGWYRQAPGKERELVAAISTGGRTYYADSVKGRFTISRDNAKNTVYLQINSLKPEDTAVYYCNFQFLSWSTIWGNDYWGQGTQVNVSS” as the sequence, how does the “polyreactivity (PSR sort gate)” value read?
**A.** high polyreactivity

**Q.** For “QVQLVESGGGLVQAGGSLRLSCAASGRTLKYNAMGWYRQAPGKERELVAAISWSGTRTYYADSVKGRFTISRDNAKNTVYLQMNSLKPEDTAVYYCALYGGLGDRFRPRYYWGQGTQVTVSS”, which “polyreactivity (PSR sort gate)” value is on record?
**A.** high polyreactivity

**Q.** With “QVQLVESGGGLVQAGGSLRLSCAASGRTLLANAMGWYRQAPGKARELVAAITWTGGRTNYADSVKGRFTISRDNAKNTVYLQMNSLKPEDTAVYYCAADIFYEQVVGGTDVGYHDFDYWGQGTQVTVSS” as the sequence, how does the “polyreactivity (PSR sort gate)” value read?
**A.** low polyreactivity

**Q.** For “QVQLVESGGGLVQAGGSLRLSCAASGRTLNVYAMGWYRQAPGKDREFVAAITVSGGNTYADSVKGRFTISRDNAKNTVYLQMNSLKPEDTAVYYCAVDRFSYSRRYDYWGQGTQVTVSS”, which “polyreactivity (PSR sort gate)” value is on record?
**A.** high polyreactivity

**Q.** For “QVQLVESGGGLVQAGGSLRLSCAASGRTLNYYAMVCYRQAPGKERELVASIDWDTGITDYADSVKGRFTISRDNAKNTVYLQMNSLKPEDSAVYYCAAVRVTKKYSYAYWGQGTQVTVSS”, which “polyreactivity (PSR sort gate)” value is on record?
**A.** low polyreactivity

**Q.** Which “polyreactivity (PSR sort gate)” value does the source give for “QVQLVESGGGLVQAGGSLRLSCAASGRTLPATGMGWYRQAPGKERELVAAINWRGGITYYADSVKGRFTISRDNAKNTVYLQMNSLKPVDTAVYYCARLRYFLLNGSLRYGTSDRDYWGQGTQVTVSS” here?
**A.** high polyreactivity

**Q.** For “QVQLVESGGGLVQAGGSLRLSCAASGRTLPYYAMGWYRQAPGKERELVATISSRGGSTYYADSVKGRFTISRDNAKNTVYLQMNSLKPEDTAVYYCAARGNTPRTRRYGYWGQGTQVTVSS”, which “polyreactivity (PSR sort gate)” value is on record?
**A.** high polyreactivity

**Q.** For “QVQLVESGGGLVQAGGSLRLSCAASGRTLQYNAMGWYRQAPGKEMELVAAISSSGGSTYYADSVKGRFTISRDNAKNTVYLQMNSLKPEDTALYYCNAYSQSWNFYGDGDYWGQGTLVTVSS”, which “polyreactivity (PSR sort gate)” value is on record?
**A.** low polyreactivity

**Q.** With “QVQLVESGGGLVQAGGSLRLSCAASGRTLRLYVMGWYRQAPGKERELVAAISRSGGRTYYADSVKGRFTISRDNATNTVYLQMNSLKPEDTAVYYCAADSGRYGYDYWGQGTLVTVSS” as the sequence, how does the “polyreactivity (PSR sort gate)” value read?
**A.** high polyreactivity

**Q.** Which “polyreactivity (PSR sort gate)” value does the source give for “QVQLVESGGGLVQAGGSLRLSCAASGRTLSRNAMGWSRQAPGKEREFVAAISSRGTSTYYADSVKGRFTISRDNAKNTVYLQMNSLKPEDTAVYYCATTLGGNYGYDYWGQGTQVTVSS” here?
**A.** high polyreactivity

**Q.** For “QVQLVESGGGLVQAGGSLRLSCAASGRTLTFYAMGWYRQAPGTERELVAAITWRAGSTYYADSVKGRFTISRDNAKNTVYLQMNSMKPEDTAVYYCAREPYSASHVYGLYRGYDYWGQGTQVTVSS”, which “polyreactivity (PSR sort gate)” value is on record?
**A.** low polyreactivity

**Q.** For “QVQLVESGGGLVQAGGSLRLSCAASGRTLTGNAMGWYRQAPGKERELVAAITARGGSTYYADSVKGRFTISRDIAKNTVYLQMNSLKPEDSAVYYCATLPVRIRRDYWGQGTQVTVSS”, which “polyreactivity (PSR sort gate)” value is on record?
**A.** high polyreactivity

**Q.** Which “polyreactivity (PSR sort gate)” value does the source give for “QVQLVESGGGLVQAGGSLRLSCAASGRTLTSYAMGWYRQAPGKERELVARISNGGNTKYADSVNGRFTISRDNAKNTVYLQMNSLKPEDTAVYYCAADYSYYHGPSRHKHDYWGQGTKVTVSS” here?
**A.** low polyreactivity

**Q.** With “QVQLVESGGGLVQAGGSLRLSCAASGRTLVGYAMGWYIQAPGKERELVAAISSRGGGTYYADSVKGRFTISRDNAKNTVYLQMNSLKQEDTAVYYCEVSGASYSWGQGTQVTVSS” as the sequence, how does the “polyreactivity (PSR sort gate)” value read?
**A.** high polyreactivity

**Q.** Which “polyreactivity (PSR sort gate)” value does the source give for “QVQLVESGGGLVQAGGSLRLSCAASGRTLVLYAMGWYRQAPGKERELVAAITWSGDSTYYADSVKGRFTISRDNAKNTVYLQMNSLKPEDTAVYYCAATYLNAKRGLRYDYWGQDTQVTVSS” here?
**A.** low polyreactivity

**Q.** Which “polyreactivity (PSR sort gate)” value does the source give for “QVQLVESGGGLVQAGGSLRLSCAASGRTLYGYPMGWYRQAPGKERELVAAISKRGTRTYYADSVKGRFTISRDNAKNTVYIQMNSLKPEDTAVYYCAARYPPDEATMVYWGQGTQVTVSS” here?
**A.** high polyreactivity

**Q.** Which “polyreactivity (PSR sort gate)” value does the source give for “QVQLVESGGGLVQAGGSLRLSCAASGRTLYKYAMGLYRQAPGKERELFATISSGGRTNYADSVKGRFTISRDNSKNTVYLQMNSLKPEDTAVYYCAAQNRPRYYSGDYWGQGSQVTVSS” here?
**A.** low polyreactivity

**Q.** Which “polyreactivity (PSR sort gate)” value does the source give for “QVQLVESGGGLVQAGGSLRLSCAASGRTLYRYTMGWYRQAPGKERELVAAISRGGSTYYADSVKGRFTISRDNAKNTVYLQMNSLKPEDTAVYYCAAVYSYTSWQTWWPEYDYWGQGTQVTVSS” here?
**A.** high polyreactivity

**Q.** Which “polyreactivity (PSR sort gate)” value does the source give for “QVQLVESGGGLVQAGGSLRLSCAASGRTSDGYAMGWYRQAPGKERELVAGITEGGGDTYYADSVKGRFTISRDNAKNTVYLQMNSLKPEDSAVYYCNAVEGSRLPYDYWGQGTQVTVSS” here?
**A.** low polyreactivity

**Q.** With “QVQLVESGGGLVQAGGSLRLSCAASGRTSGINAMGWYRQSPGKERELVAAISSGGRTYYADSVKGRFTISRDNAKNTVYLQMNSLKPEDTAVYYCAAVIHWSLYRRMEYWGQGTQVTVSS” as the sequence, how does the “polyreactivity (PSR sort gate)” value read?
**A.** high polyreactivity

**Q.** Which “polyreactivity (PSR sort gate)” value does the source give for “QVQLVESGGGLVQAGGSLRLSCAASGRTSGNYAMGWYRPAPGKERELVAAMRYSGSSTFYADSVKGRFTISRDNAKNTVYLQMNSLKPEDTAVYYCARDIRRKGFRYDYWGQGTQVTVSS” here?
**A.** high polyreactivity

**Q.** Which “polyreactivity (PSR sort gate)” value does the source give for “QVQLVESGGGLVQAGGSLRLSCAASGRTSIYNAMGWYRQAPGKDREFVAAITSSGGSTYYADSVKGRFTISRDNAKNTVYLQMNSLKPEDTAVYYCAARPAYVYAYYRYGYWGQGTQVTVSS” here?
**A.** high polyreactivity

**Q.** With “QVQLVESGGGLVQAGGSLRLSCAASGRTSKVYAMGWYRQAPGKERELVARITSSGVRTYYADSVKGRFTISRDNAKNTVYLQMNSLKPEDTAVYYCAKDARALWLHSGIYDYWGQGTQVTVSS” as the sequence, how does the “polyreactivity (PSR sort gate)” value read?
**A.** low polyreactivity

**Q.** With “QVQLVESGGGLVQAGGSLRLSCAASGRTSRIYAMGLYRQAPGKERELVASISRRGGITYYADSVKGRFTISRDNAKTTVDFQMTSLKPEDTAVYYSASYYTNKVPARYYWGQGTEVTVSS” as the sequence, how does the “polyreactivity (PSR sort gate)” value read?
**A.** high polyreactivity

**Q.** With “QVQLVESGGGLVQAGGSLRLSCAASGRTSRYYAMGWYRQAPGKERELVATITRGGTTNYADSVKGRFTISRDNAKNNVYLQMNSLKPEDTAVYYCNKVFRAPGVSDYGYWGQGTQVTVSS” as the sequence, how does the “polyreactivity (PSR sort gate)” value read?
**A.** high polyreactivity

**Q.** With “QVQLVESGGGLVQAGGSLRLSCAASGRTSTIYTMGWYRQAPGKEREFVASISAGAGTYYADSVKGRFTISRDNAKNTVYLQMNSLKPEDTAVYYCSASVYWRSTRRHQMDYWGQGTQVTVSS” as the sequence, how does the “polyreactivity (PSR sort gate)” value read?
**A.** high polyreactivity

**Q.** For “QVQLVESGGGLVQAGGSLRLSCAASGRTSVRYAMGWYRQAPGKERELVAAISWSGGSTYYADSVKGRFTISRDNAKNTVYLQMNSLKPEDTAVYYCNAQHARGYYYWGQGTQVTVSS”, which “polyreactivity (PSR sort gate)” value is on record?
**A.** low polyreactivity

**Q.** For “QVQLVESGGGLVQAGGSLRLSCAASGRTSVVNAMGWYRQAPGKERELVAAITSGGSTHYADSVKGRFTISRDNAKNTVYLQMNSLKPEDTAVYYCNARDRRRTNLLDYWGQGTQVTVSS”, which “polyreactivity (PSR sort gate)” value is on record?
**A.** low polyreactivity

**Q.** Which “polyreactivity (PSR sort gate)” value does the source give for “QVQLVESGGGLVQAGGSLRLSCAASGRTSWYYAMGWYRQAPGNERELVATITRSTGSTYYADSVKGRFTISRDNAKNTVYLQMNCLKPEDTAVYDCARLYYFNGDYWGQGTQVTVSS” here?
**A.** high polyreactivity

**Q.** Which “polyreactivity (PSR sort gate)” value does the source give for “QVQLVESGGGLVQAGGSLRLSCAASGRTSYGYAMGWYRQAPGKERDLFAAITYGGGSTYYADTVKGRFTISRDNANNTVYLQMNSLIPEDTALYYCAADRTGSTLYTISYYYWGQGTQVTVSS” here?
**A.** low polyreactivity

**Q.** For “QVQLVESGGGLVQAGGSLRLSCAASGRTVDWYAMGWYRQAPGTDRELVAVISSSGGRTYYADSVKGRFTISRDNAKNTVYLQMNRLKPEDTAVYYCATQNGSKRYSYYYWGQGTQVTVSS”, which “polyreactivity (PSR sort gate)” value is on record?
**A.** high polyreactivity

**Q.** With “QVQLVESGGGLVQAGGSLRLSCAASGRTVVTNAMGWYRQAPGKERELVATINWSGGRTHYADSVKGRFTISRDNAKITVYLQMNSLIPEDTAVYYCAKASSRRYWTIRDGDYWGQGTQVTVAS” as the sequence, how does the “polyreactivity (PSR sort gate)” value read?
**A.** low polyreactivity

**Q.** With “QVQLVESGGGLVQAGGSLRLSCAASGRTYGGNAMGWYRQAPGKERELVAAITVSAGHTYYADSVKGRFTISRDNAKNTVYLQMKSLKPEDTAVYYCAKVYHWYYSYDYWGQGTQVTVSS” as the sequence, how does the “polyreactivity (PSR sort gate)” value read?
**A.** low polyreactivity

**Q.** With “QVQLVESGGGLVQAGGSLRLSCAASGRTYGNYAMGWSRPAPGKERELVAGITYRSGRTYYADSVKGRFTISRDNAKITFYLQMNSLKPEDTAVYYCAAASYYLTPKHDYWGQGTQVTVSW” as the sequence, how does the “polyreactivity (PSR sort gate)” value read?
**A.** high polyreactivity
